In US20190248875A1:

Biological target: envelope protein of DENV type 2 (DENV2), strain NGC M29095 (dengue virus type 2 (strain NGC)) (UniProt P14340)
Test: cell-based or functional assay

4G2 antibodies against the envelope protein of Flavivirus (antibody)
fold of infection enhancement of DENV2 in K562 cells (ADE assay): 60 fold
